Source: article PMC4138882

Molecular target: 3ftt-wt, wild-type trimeric protein from which T3-08 was derived (PDB ID 3FTT), C-terminal (His)6 construct
Test: SEC

stoichiometry N: 3 subunits
Substance: 3ftt-wt, wild-type trimeric protein from which T3-08 was derived (PDB ID 3FTT), C-terminal (His)6 construct (natural protein)
